This note sets out measurements from patent publication US20160324751A1, “METHOD OF PREPARING RECOMBINANT HUMAN TYROSINASE” (Conopco, Inc., d/b/a UNILEVER, priority 2012, published 2016).

Test [1] concerns the target T1, human tyrosinase prepared using truncated gene (TMRL) (Homo sapiens, UniProt P14679).
T1 construct: The truncated version is defined as a gene whose corresponding protein extends from the N-terminus to the amino acid 472 or lower; made in house; host or cells: HIGHFIVE (BTI-TN-5B1-4) insect cells, baculovirus (PFASTBAC)
T1 sequence (P14679 19-472 limits assumed): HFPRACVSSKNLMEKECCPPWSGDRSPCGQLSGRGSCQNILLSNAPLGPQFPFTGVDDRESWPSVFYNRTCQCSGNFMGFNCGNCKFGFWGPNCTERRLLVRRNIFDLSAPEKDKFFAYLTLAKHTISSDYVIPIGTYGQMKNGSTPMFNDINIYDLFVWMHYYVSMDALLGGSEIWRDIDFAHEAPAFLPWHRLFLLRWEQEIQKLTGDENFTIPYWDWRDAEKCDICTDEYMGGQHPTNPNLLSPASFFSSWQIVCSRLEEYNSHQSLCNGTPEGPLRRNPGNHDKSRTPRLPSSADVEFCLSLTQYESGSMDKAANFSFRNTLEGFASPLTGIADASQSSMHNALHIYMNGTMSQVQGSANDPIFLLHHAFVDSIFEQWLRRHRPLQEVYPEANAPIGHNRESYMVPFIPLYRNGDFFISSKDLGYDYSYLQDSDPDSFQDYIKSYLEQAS
The experiment in a line: In vitro tyrosine to melanin assay. It is filed as biochemical. The conditions noted are these: TMRL (60 μg) + 50 mM Arbutin.
Source text: At the completion of the reaction, samples were photographed and data analyzed further in the same manner described under the DOPA+MBTH section.

Test [2] deals with human tyrosinase. Kind of test: DOPA (2 mM) oxidation assay in absence of MBTH, OD450 nm. It is filed as biochemical. The conditions noted are these: 15 μg protein equivalent, OD450 nm after 90 min converted into ratio. Here is the method:
DOPA oxidation activity was examined by a slightly modified version of the procedure earlier reported by Harris & Winder [Eur. J. Biochem. (1991) 198: 317-326], excluding Perchloric acid and Dimethylformamide but capturing a picture on reaction progress. Separately, in vitro melanin formation assay was carried out for 7 hrs. at 37° C., using a substrate mix (of 0.5 mM L-Tyrosine+15 μM L-DOPA) in 50 mM phosphate buffer (pH 6.8) and using indicated amounts of protein. This assay covers both tyrosine hydroxylation and DOPA oxidation activities together in the same run. Human melanocytic lysate served as the reference positive control and absence of any protein served as the no enzyme negative control (uncatalyzed background reaction) for these reactions. Assay volumes of 0.1 ml were adequate, indicating scalability for enhanced high throughput screening purposes.
When the activity of 15 μg protein equivalent recombinant human tyrosinase samples were tested in DOPA (2 mM) assay (in absence of MBTH), OD450 nm values reached after 90 min. (indication of extent of oxidation) were converted into a ratio form and are tabulated below: […]

For test [3], the system named is insect cells expressing FL rHuTyrase. The experiment in a line: Visual examination of cell pellet prior to cell lysis. The format is cell-based. The conditions noted are these: prior to cell lysis by sonication; control uninfected cells pale. The source says:
FIG. 2: Visual examination (prior to cell lysis by sonication) of the samples of cell pellet obtained in the case of insect cells expressing Full (FL) rHuTyrase (Example 1) as compared to the control uninfected cells (Example A).

Test [4] concerns human tyrosinase. The experiment in a line: DOPA+MBTH solution phase tyrosinase enzymatic assay. It is filed as biochemical. The conditions noted are these: gray scale intensity difference to Example D, relative to HML (Example B); 0 = transparent, close to 1 = activity comparable to HML. Here is the method:
Standard western blot procedure was used to examine the extent of tyrosinase protein expression as well as determine optimal time point to harvest the cells. For scale up work, it was decided to use the insect cell line known as BTI-TN-5B1-4, sold under the tradename HIGHFIVE™ further. 100 ml scale growth of “infected” HIGHFIVE™ cells were carried out and both the spent media as well as the cell pellets were collected. The latter was lyzed by regular sonication method and the activity of the tyrosinase enzyme in various samples were tested using the typical DOPA oxidation and DOPA+MBTH coupling assays.
DOPA oxidation activity was examined by a slightly modified version of the procedure earlier reported by Harris & Winder [Eur. J. Biochem. (1991) 198: 317-326], excluding Perchloric acid and Dimethylformamide but capturing a picture on reaction progress. […]
Example E: Growth media supernatant in which above cells were grown Reaction samples were photographed and converted into gray scale intensity (GSI) by computer software digitization. Numerical differences (di) were calculated between GSI of any sample and that of reference control background sample (Example D). dmax was the maximal difference, that between HML (positive reference control, Example B) and the reference control background sample (Example D).

For `OC[C@H]1O[C@@H](Oc2ccc(O)cc2)[C@H](O)[C@@H](O)[C@@H]1O` [Arbutin], the “Scale ratio di/dmax (tyrosinase activity of TMRL with inhibitor)” value in test [1] is 0.00.

B1: Example G: Commercially sourced E. coli (bacteria) expressed recombinant human tyrosinase (protein, UniProt P14679 19-529, looked up)
Tyrosinase: HFPRACVSSKNLMEKECCPPWSGDRSPCGQLSGRGSCQNILLSNAPLGPQFPFTGVDDRESWPSVFYNRTCQCSGNFMGFNCGNCKFGFWGPNCTERRLLVRRNIFDLSAPEKDKFFAYLTLAKHTISSDYVIPIGTYGQMKNGSTPMFNDINIYDLFVWMHYYVSMDALLGGSEIWRDIDFAHEAPAFLPWHRLFLLRWEQEIQKLTGDENFTIPYWDWRDAEKCDICTDEYMGGQHPTNPNLLSPASFFSSWQIVCSRLEEYNSHQSLCNGTPEGPLRRNPGNHDKSRTPRLPSSADVEFCLSLTQYESGSMDKAANFSFRNTLEGFASPLTGIADASQSSMHNALHIYMNGTMSQVQGSANDPIFLLHHAFVDSIFEQWLRRHRPLQEVYPEANAPIGHNRESYMVPFIPLYRNGDFFISSKDLGYDYSYLQDSDPDSFQDYIKSYLEQASRIWSWLLGAAMVGAVLTALLAGLVSLLCRHKRKQLPEEKQPLLMEKEDYHSLYQSHL
modifications: E. coli expressed
notes: Commercially sourced E. coli (bacteria) expressed recombinant human tyrosinase
On to B1, for which the “Scale ratio di/dmax (Extent of DOPA oxidation)” value in the test on human tyrosinase [2] turned out to be 0.04.

B2: Example 1: Full length recombinant human tyrosinase, synthetic gene codon optimized for baculovirus expression in insect cells (protein, UniProt P14679 1-529, looked up)
chain: MLLAVLYCLLWSFQTSAGHFPRACVSSKNLMEKECCPPWSGDRSPCGQLSGRGSCQNILLSNAPLGPQFPFTGVDDRESWPSVFYNRTCQCSGNFMGFNCGNCKFGFWGPNCTERRLLVRRNIFDLSAPEKDKFFAYLTLAKHTISSDYVIPIGTYGQMKNGSTPMFNDINIYDLFVWMHYYVSMDALLGGSEIWRDIDFAHEAPAFLPWHRLFLLRWEQEIQKLTGDENFTIPYWDWRDAEKCDICTDEYMGGQHPTNPNLLSPASFFSSWQIVCSRLEEYNSHQSLCNGTPEGPLRRNPGNHDKSRTPRLPSSADVEFCLSLTQYESGSMDKAANFSFRNTLEGFASPLTGIADASQSSMHNALHIYMNGTMSQVQGSANDPIFLLHHAFVDSIFEQWLRRHRPLQEVYPEANAPIGHNRESYMVPFIPLYRNGDFFISSKDLGYDYSYLQDSDPDSFQDYIKSYLEQASRIWSWLLGAAMVGAVLTALLAGLVSLLCRHKRKQLPEEKQPLLMEKEDYHSLYQSHL
modifications: full-length recombinant, baculovirus-expressed
notes: Full length recombinant human tyrosinase, synthetic gene codon optimized for baculovirus expression in insect cells
On to B2, for which the “Colour of cell pellet (melanin like pigment within the cells)” value in test [3] is given as “black”.

B3: Example 3: Sonication lysate supernatant of HIGHFIVE cells expressing FL tyrosinase (protein, UniProt P14679 1-529, looked up)
chain: MLLAVLYCLLWSFQTSAGHFPRACVSSKNLMEKECCPPWSGDRSPCGQLSGRGSCQNILLSNAPLGPQFPFTGVDDRESWPSVFYNRTCQCSGNFMGFNCGNCKFGFWGPNCTERRLLVRRNIFDLSAPEKDKFFAYLTLAKHTISSDYVIPIGTYGQMKNGSTPMFNDINIYDLFVWMHYYVSMDALLGGSEIWRDIDFAHEAPAFLPWHRLFLLRWEQEIQKLTGDENFTIPYWDWRDAEKCDICTDEYMGGQHPTNPNLLSPASFFSSWQIVCSRLEEYNSHQSLCNGTPEGPLRRNPGNHDKSRTPRLPSSADVEFCLSLTQYESGSMDKAANFSFRNTLEGFASPLTGIADASQSSMHNALHIYMNGTMSQVQGSANDPIFLLHHAFVDSIFEQWLRRHRPLQEVYPEANAPIGHNRESYMVPFIPLYRNGDFFISSKDLGYDYSYLQDSDPDSFQDYIKSYLEQASRIWSWLLGAAMVGAVLTALLAGLVSLLCRHKRKQLPEEKQPLLMEKEDYHSLYQSHL
modifications: full-length insect cell lysate
With B3, the “Scale ratio di/dmax (DOPA + MBTH Reaction)” value with human tyrosinase [4] came to 0.85.

B4: Example 6: FL lysate supernatant, 15 μg protein equivalent (protein, UniProt P14679 1-529, looked up)
chain: MLLAVLYCLLWSFQTSAGHFPRACVSSKNLMEKECCPPWSGDRSPCGQLSGRGSCQNILLSNAPLGPQFPFTGVDDRESWPSVFYNRTCQCSGNFMGFNCGNCKFGFWGPNCTERRLLVRRNIFDLSAPEKDKFFAYLTLAKHTISSDYVIPIGTYGQMKNGSTPMFNDINIYDLFVWMHYYVSMDALLGGSEIWRDIDFAHEAPAFLPWHRLFLLRWEQEIQKLTGDENFTIPYWDWRDAEKCDICTDEYMGGQHPTNPNLLSPASFFSSWQIVCSRLEEYNSHQSLCNGTPEGPLRRNPGNHDKSRTPRLPSSADVEFCLSLTQYESGSMDKAANFSFRNTLEGFASPLTGIADASQSSMHNALHIYMNGTMSQVQGSANDPIFLLHHAFVDSIFEQWLRRHRPLQEVYPEANAPIGHNRESYMVPFIPLYRNGDFFISSKDLGYDYSYLQDSDPDSFQDYIKSYLEQASRIWSWLLGAAMVGAVLTALLAGLVSLLCRHKRKQLPEEKQPLLMEKEDYHSLYQSHL
modifications: full-length insect cell lysate
notes: FL lysate supernatant, 15 μg protein equivalent
Consider B4, for which the “Scale ratio di/dmax (Extent of DOPA oxidation)” value in the test with human tyrosinase [2] came to 0.90.
